Test [1] deals with T1, CD8 on CD8+ T cells (UniProt P01732 22-235).
T1 construct: whole, on cells
In words: FACS.

Test [2] deals with human IL-12 receptor complex (IL-12Rβ1, IL-12Rβ2) (human, UniProt P42701 24-662; Q99665 24-862). Briefly: cell-based or functional assay.
The target of test [3] is IL-23 receptor complex (IL-12Rβ1, IL-23R) (UniProt P42701 24-662; Q5VWK5 24-629, limits assumed). Briefly: cell-based or functional assay.
Test [4] addresses T2, human IL-2 receptor (IL-2Rα, IL-2Rβ, IL-2Rγ) (human, UniProt P01589 22-272; P14784 27-551; P31785 23-369).
T2 sequence (looked up) 1: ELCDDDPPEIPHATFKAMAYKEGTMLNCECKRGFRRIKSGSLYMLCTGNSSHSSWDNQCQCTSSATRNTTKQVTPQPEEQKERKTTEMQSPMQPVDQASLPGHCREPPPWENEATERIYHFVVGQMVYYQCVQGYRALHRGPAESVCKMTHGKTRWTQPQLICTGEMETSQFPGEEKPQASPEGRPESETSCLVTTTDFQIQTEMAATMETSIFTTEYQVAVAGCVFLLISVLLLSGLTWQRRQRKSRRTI
T2 sequence (looked up) 2: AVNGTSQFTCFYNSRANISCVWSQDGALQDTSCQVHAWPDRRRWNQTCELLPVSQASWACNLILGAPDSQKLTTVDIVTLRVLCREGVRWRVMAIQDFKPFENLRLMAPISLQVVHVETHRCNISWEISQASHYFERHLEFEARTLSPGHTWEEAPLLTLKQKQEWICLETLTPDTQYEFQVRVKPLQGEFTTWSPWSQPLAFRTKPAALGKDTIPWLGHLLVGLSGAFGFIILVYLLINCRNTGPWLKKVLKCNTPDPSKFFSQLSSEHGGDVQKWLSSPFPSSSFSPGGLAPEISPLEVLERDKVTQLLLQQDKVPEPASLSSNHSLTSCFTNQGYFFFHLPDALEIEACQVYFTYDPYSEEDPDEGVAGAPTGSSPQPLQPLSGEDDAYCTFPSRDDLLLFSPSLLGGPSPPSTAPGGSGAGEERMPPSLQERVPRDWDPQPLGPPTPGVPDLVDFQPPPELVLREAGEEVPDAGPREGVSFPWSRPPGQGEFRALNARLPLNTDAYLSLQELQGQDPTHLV
T2 sequence (looked up) 3: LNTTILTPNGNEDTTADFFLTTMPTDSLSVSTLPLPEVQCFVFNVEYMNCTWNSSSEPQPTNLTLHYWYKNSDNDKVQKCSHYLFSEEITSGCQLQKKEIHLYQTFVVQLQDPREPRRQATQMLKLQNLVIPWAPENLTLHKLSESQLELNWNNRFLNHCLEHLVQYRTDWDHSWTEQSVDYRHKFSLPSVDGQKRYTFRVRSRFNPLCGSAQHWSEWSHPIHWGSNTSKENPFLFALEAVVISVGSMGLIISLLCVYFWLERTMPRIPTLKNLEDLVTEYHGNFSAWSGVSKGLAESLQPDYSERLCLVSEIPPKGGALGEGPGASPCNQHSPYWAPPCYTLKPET
In words: cell-based or functional assay.

Where a chain is given by its changes, count along the chain named. Numbers in names are those of the source.

The source of these data is patent US20240190962A1 (IMMUNOWAKE, published 2024).

T1 sequence (P01732 22-235): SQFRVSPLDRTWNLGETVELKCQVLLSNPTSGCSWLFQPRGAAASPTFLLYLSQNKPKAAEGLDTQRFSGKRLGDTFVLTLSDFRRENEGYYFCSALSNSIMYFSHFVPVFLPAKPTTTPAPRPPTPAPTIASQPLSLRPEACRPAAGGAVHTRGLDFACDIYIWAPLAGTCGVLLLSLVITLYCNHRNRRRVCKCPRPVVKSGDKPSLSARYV
human IL-12 receptor complex (IL-12Rβ1, IL-12Rβ2), sequence (Q99665 24-862, chain 2 of 2, other chains not shown): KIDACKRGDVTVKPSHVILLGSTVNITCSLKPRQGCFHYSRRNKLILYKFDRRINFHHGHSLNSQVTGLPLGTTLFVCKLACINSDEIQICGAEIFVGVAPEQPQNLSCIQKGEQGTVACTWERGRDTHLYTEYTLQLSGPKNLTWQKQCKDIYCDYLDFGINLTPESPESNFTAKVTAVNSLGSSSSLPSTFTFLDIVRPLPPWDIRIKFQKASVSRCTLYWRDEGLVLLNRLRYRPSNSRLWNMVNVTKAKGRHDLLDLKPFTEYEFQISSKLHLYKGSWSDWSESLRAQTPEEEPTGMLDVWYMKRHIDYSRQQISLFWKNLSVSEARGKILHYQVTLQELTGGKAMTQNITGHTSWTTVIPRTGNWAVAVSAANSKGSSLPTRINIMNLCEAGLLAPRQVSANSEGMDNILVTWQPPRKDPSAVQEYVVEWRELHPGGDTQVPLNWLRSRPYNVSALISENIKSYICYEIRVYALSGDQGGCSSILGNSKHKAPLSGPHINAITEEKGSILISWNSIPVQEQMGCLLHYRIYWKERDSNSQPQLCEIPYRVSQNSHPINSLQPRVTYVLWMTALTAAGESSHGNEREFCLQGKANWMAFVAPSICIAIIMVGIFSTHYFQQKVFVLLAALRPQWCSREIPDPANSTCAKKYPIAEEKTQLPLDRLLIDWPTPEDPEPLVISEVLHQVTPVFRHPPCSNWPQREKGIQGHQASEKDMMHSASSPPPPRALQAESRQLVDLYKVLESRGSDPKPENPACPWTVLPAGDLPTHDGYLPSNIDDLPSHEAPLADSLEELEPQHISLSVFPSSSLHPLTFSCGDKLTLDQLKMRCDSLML
IL-23 receptor complex (IL-12Rβ1, IL-23R), sequence (Q5VWK5 24-629 limits assumed, chain 2 of 2, other chains not shown): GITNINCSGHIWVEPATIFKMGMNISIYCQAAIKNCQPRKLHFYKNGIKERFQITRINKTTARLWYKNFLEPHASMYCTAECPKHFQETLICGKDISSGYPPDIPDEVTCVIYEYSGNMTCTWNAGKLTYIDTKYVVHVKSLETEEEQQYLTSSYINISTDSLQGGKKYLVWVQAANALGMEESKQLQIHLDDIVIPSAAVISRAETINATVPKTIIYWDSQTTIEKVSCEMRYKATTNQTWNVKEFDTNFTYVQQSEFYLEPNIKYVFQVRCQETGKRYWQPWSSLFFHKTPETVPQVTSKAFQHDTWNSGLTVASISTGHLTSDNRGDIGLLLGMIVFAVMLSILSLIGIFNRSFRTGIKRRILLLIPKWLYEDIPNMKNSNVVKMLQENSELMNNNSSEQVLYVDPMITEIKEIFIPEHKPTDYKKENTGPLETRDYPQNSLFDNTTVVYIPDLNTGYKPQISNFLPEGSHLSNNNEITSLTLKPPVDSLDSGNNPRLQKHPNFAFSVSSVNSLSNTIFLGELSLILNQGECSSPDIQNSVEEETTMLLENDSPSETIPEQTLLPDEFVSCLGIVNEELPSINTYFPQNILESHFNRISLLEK

B1: Fab-IL-12(WT)-Fc-CD4 Ab (other)
light: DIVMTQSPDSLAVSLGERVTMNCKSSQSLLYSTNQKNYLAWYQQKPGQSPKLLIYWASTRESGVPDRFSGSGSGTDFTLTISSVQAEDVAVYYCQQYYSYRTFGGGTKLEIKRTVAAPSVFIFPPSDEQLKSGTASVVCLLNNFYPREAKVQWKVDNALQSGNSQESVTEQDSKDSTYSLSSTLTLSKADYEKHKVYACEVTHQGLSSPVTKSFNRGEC
heavy 1: QVQLQQSGPEVVKPGASVKMSCKASGYTFTSYVIHWVRQKPGQGLDWIGYINPYNDGTDYDEKFKGKATLTSDTSTSTAYMELSSLRSEDTAVYYCAREKDNYATGAWFAYWGQGTLVTVSSASTKGPSVFPLAPSSKSTSGGTAALGCLVKDYFPEPVTVSWNSGALTSGVHTFPAVLQSSGLYSLSSVVTVPSSSLGTQTYICNVNHKPSNTKVDKKVEPKSCDKTHTCPPCPAPEKKGGPSVFLFPPKPKDTLMISRTPEVTCVVVDVSHEDPEVKFNWYVDGVEVHNAKTKPREEQYNSTYRVVSVLTVLHQDWLNGKEYKCKVSNKALPAPIEKTISKAKGQPREPQVYVLPPSREEMTKNQVSLLCLVKGFYPSDIAVEWESNGQPENRYMTWPPVLDSDGSFFLYSKLTVDKSRWQQGNVFSCSVMHEALHNHYTQKSLSLSPGK
heavy 2: QVQLQQSGPEVVKPGASVKMSCKASGYTFTSYVIHWVRQKPGQGLDWIGYINPYNDGTDYDEKFKGKATLTSDTSTSTAYMELSSLRSEDTAVYYCAREKDNYATGAWFAYWGQGTLVTVSSASTKGPSVFPLAPSSKSTSGGTAALGCLVKDYFPEPVTVSWNSGALTSGVHTFPAVLQSSGLYSLSSVVTVPSSSLGTQTYICNVNHKPSNTKVDKKVEPKSCDKPGSGIWELKKDVYVVELDWYPDAPGEMVVLTCDTPEEDGITWTLDQSSEVLGSGKTLTIQVKEFGDAGQYTCHKGGEVLSHSLLLLHKKEDGIWSTDILKDQKEPKNKTFLRCEAKNYSGRFTCWWLTTISTDLTFSVKSSRGSSDPQGVTCGAATLSAERVRGDNKEYEYSVECQEDSACPAAEESLPIEVMVDAVHKLKYENYTSSFFIRDIIKPDPPKNLQLKPLKNSRQVEVSWEYPDTWSTPHSYFSLTFCVQVQGKSKREKKDRVFTDKTSATVICRKNASISVRAQDRYYSSSWSEWASVPCSGGGGSGGGGSGGGGSGGGGSGRNLPVATPDPGMFPCLHHSQNLLRAVSNMLQKARQTLEFYPCTSEEIDHEDITKDKTSTVEACLPLELTKNESCLNSRETSFITNGSCLASRKTSFMMALCLSSIYEDLKMYQVEFKTMNAKLLMDPKRQIFLDQNMLAVIDELMQALNFNSETVPQKSSLEEPDFYKTKIKLCILLHAFRIRAVTIDRVMSYLNASDKTHTCPPCPAPEDEGGPSVFLFPPKPKDTLMISRTPEVTCVVVDVSHEDPEVKFNWYVDGVEVHNAKTKPREEQYNSTYRVVSVLTVLHQDWLNGKEYKCKVSNKALPAPIEKTISKAKGQPREPQVYVYPPSREEMTKNQVSLTCLVKGFYPSDIAVEWESNGQPENNYKTTPPVLDEDGSFALVSKLTVDKSRWQQGNVFSCSVMHEALHNHYTQKSLSLSPGK
notes: copies: 2 + 1 + 1
For B1, in test [1], the binding result is given as “no binding”. Also, in test [2], the “IL-12 biological activity (IFN-γ release), CD4+ T cells” value stood at 43% and the “IL-12 biological activity (IFN-γ release), CD8+ T cells” value was determined as 25%.

B2: Fab-IL-23(WT)-Fc-CD4 Ab (other)
light: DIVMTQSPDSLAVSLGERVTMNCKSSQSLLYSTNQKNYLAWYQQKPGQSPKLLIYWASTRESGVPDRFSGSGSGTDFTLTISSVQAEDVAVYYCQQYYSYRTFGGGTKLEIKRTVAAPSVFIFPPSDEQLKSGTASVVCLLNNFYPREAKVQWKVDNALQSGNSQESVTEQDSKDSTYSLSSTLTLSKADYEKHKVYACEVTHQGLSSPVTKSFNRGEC
heavy 1: B1 heavy 1
heavy 2: QVQLQQSGPEVVKPGASVKMSCKASGYTFTSYVIHWVRQKPGQGLDWIGYINPYNDGTDYDEKFKGKATLTSDTSTSTAYMELSSLRSEDTAVYYCAREKDNYATGAWFAYWGQGTLVTVSSASTKGPSVFPLAPSSKSTSGGTAALGCLVKDYFPEPVTVSWNSGALTSGVHTFPAVLQSSGLYSLSSVVTVPSSSLGTQTYICNVNHKPSNTKVDKKVEPKSCDKPGSGIWELKKDVYVVELDWYPDAPGEMVVLTCDTPEEDGITWTLDQSSEVLGSGKTLTIQVKEFGDAGQYTCHKGGEVLSHSLLLLHKKEDGIWSTDILKDQKEPKNKTFLRCEAKNYSGRFTCWWLTTISTDLTFSVKSSRGSSDPQGVTCGAATLSAERVRGDNKEYEYSVECQEDSACPAAEESLPIEVMVDAVHKLKYENYTSSFFIRDIIKPDPPKNLQLKPLKNSRQVEVSWEYPDTWSTPHSYFSLTFCVQVQGKSKREKKDRVFTDKTSATVICRKNASISVRAQDRYYSSSWSEWASVPCSGGGGSGGGGSGGGGSGGGGSGRAVPGGSSPAWTQCQQLSQKLCTLAWSAHPLVGHMDLREEGDEETTNDVPHIQCGDGCDPQGLRDNSQFCLQRIHQGLIFYEKLLGSDIFTGEPSLLPDSPVGQLHASLLGLSQLLQPEGHHWETQQIPSLSPSQPWQRLLLRFKILRSLQAFVAVAARVFAHGAATLSPDKTHTCPPCPAPEDEGGPSVFLFPPKPKDTLMISRTPEVTCVVVDVSHEDPEVKFNWYVDGVEVHNAKTKPREEQYNSTYRVVSVLTVLHQDWLNGKEYKCKVSNKALPAPIEKTISKAKGQPREPQVYVYPPSREEMTKNQVSLTCLVKGFYPSDIAVEWESNGQPENNYKTTPPVLDEDGSFALVSKLTVDKSRWQQGNVFSCSVMHEALHNHYTQKSLSLSPGK
notes: copies: 2 + 1 + 1
With B2, in test [3], the “IL-23 biological activity (IFN-γ release), CD4+ T cells” value came to 34% and the “IL-23 biological activity (IFN-γ release), CD8+ T cells” value stood at 21%. In test [1], the binding result was “no binding”.

B3: Fab-IL-12(F60A)-Fc-CD4 Ab (other)
light: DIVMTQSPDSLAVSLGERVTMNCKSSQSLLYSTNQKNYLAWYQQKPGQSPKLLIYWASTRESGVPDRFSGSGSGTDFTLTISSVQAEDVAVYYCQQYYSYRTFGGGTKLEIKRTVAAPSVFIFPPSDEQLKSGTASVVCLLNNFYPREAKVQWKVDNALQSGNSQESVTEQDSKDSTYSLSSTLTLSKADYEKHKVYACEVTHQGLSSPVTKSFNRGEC
heavy 1: B1 heavy 1
heavy 2: B1 heavy 2 with F291A
notes: copies: 2 + 1 + 1
As for B3, the binding result in test [1] is given as “no binding”. Besides, in test [2], the “IL-12 biological activity (IFN-γ release), CD4+ T cells” value worked out at 32.2% and the “IL-12 biological activity (IFN-γ release), CD8+ T cells” value came out at 1.5%.

B4: Fab-IL-23(F60A)-Fc-CD4 Ab (other)
light: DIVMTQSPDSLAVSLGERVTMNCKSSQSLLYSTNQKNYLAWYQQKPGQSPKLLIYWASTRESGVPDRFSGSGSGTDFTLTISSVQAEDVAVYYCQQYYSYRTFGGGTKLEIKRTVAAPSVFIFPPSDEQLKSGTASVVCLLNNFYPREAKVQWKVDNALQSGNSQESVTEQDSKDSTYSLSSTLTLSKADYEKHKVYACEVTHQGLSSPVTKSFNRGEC
heavy 1: B1 heavy 1
heavy 2: B2 heavy 2 with F291A
notes: copies: 2 + 1 + 1
As to B4, in test [3], the “IL-23 biological activity (IFN-γ release), CD4+ T cells” value was 29% and the “IL-23 biological activity (IFN-γ release), CD8+ T cells” value was found to be 1.5%. Moreover, the binding result in test [1] is reported as “no binding”.

B5: Fab-IL-23(E59A)-Fc-CD4 Ab (other)
light: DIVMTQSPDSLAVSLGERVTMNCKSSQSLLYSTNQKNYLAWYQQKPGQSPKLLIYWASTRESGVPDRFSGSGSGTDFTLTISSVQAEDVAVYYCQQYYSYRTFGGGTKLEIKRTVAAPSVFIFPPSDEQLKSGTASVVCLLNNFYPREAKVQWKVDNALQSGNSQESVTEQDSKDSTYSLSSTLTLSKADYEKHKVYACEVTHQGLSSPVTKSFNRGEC
heavy 1: B1 heavy 1
heavy 2: B2 heavy 2 with E290A
notes: copies: 2 + 1 + 1
For B5, in test [3], the “IL-23 biological activity (IFN-γ release), CD4+ T cells” value turned out to be 24% and the “IL-23 biological activity (IFN-γ release), CD8+ T cells” value is 2%. Also, in test [1], the binding result is listed as “no binding”.

B6: Fab-IL-23(E59A/F60A)-Fc-CD4 Ab (other)
light: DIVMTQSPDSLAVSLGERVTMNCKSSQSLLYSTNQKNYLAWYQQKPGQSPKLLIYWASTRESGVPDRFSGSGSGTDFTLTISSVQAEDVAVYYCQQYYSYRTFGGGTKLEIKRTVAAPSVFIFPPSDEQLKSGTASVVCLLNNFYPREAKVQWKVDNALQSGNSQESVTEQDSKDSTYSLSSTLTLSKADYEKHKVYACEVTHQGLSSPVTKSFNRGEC
heavy 1: B1 heavy 1
heavy 2: B2 heavy 2 with E290A, F291A
On to B6, for which, in test [3], the “IL-23 biological activity (IFN-γ release), CD4+ T cells” value stood at 6.8% and the “IL-23 biological activity (IFN-γ release), CD8+ T cells” value is 0%. Moreover, the binding result in test [1] was “no binding”.

B7: Fab-IL-12(E59A/F60A)-Fc-CD4 Ab (other)
light: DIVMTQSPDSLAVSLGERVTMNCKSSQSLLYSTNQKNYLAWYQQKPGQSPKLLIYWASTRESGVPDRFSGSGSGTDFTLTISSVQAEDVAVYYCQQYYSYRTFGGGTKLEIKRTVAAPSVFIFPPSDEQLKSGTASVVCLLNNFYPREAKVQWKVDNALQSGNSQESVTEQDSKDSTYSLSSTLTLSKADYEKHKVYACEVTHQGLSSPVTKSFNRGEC
heavy 1: B1 heavy 1
heavy 2: B1 heavy 2 with E290A, F291A
For the molecule B7, in test [1], the binding result is on record as “no binding”. Also, in test [2], the “IL-12 biological activity (IFN-γ release), CD4+ T cells” value was found to be 8.2% and the “IL-12 biological activity (IFN-γ release), CD8+ T cells” value turned out to be 0%.

B8: Fab-IL-12(E59A)-Fc-CD4 Ab (other)
light: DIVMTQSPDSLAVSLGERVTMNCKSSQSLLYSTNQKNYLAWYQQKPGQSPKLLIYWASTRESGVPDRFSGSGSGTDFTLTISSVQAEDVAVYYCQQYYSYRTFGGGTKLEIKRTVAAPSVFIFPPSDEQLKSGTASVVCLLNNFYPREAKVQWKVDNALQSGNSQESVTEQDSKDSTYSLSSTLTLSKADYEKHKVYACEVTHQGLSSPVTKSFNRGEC
heavy 1: B1 heavy 1
heavy 2: B1 heavy 2 with E290A
notes: copies: 2 + 1 + 1
As to B8, the binding result in test [1] is “no binding”. Besides, in test [2], the “IL-12 biological activity (IFN-γ release), CD4+ T cells” value amounted to 29.8% and the “IL-12 biological activity (IFN-γ release), CD8+ T cells” value is 1.1%.

B9: anti-CD3 antibody (made in-house) (antibody, V domains shown)
VH: EVQLVESGGGLVQPGRSLRLSCTASGFTFSYFWMNWVRQAPGKGLEWVGEIRLRSDNYATHYAESVKGRFTISRDDSKSIAYLQMNSLKTEDTALYYCTRDWEFTYWGQGTTVTVSS
VL: EIVMTQSPGTLSLSPGESATLSCSASLSVSFMHWFQQKPGHAPRLLIYRTSNLASGVPDRFSGSGSGTDFTLTISRLEPEDFAVYYCQQRSSDPPTFGQGTRLEIKR
With B9, in test [4], the “Percent IL-2 signal transduction (HEK-IL-2 reporter assay)” value came to 0% and the “Percent T-cell proliferation (PBMC proliferation assay)” value was determined as 0%.

B10: IL-2 mutant-Fc-CD3 Ab (other, not shown: a dimerising Fc or GST)
light: EIVMTQSPGTLSLSPGESATLSCSASLSVSFMHWFQQKPGHAPRLLIYRTSNLASGVPDRFSGSGSGTDFTLTISRLEPEDFAVYYCQQRSSDPPTFGQGTRLEIKRTVAAPSVFIFPPSDEQLKSGTASVVCLLNNFYPREAKVQWKVDNALQSGNSQESVTEQDSKDSTYSLSSTLTLSKADYEKHKVYACEVTHQGLSSPVTKSFNRGEC
heavy: EVQLVESGGGLVQPGRSLRLSCTASGFTFSYFWMNWVRQAPGKGLEWVGEIRLRSDNYATHYAESVKGRFTISRDDSKSIAYLQMNSLKTEDTALYYCTRDWEFTYWGQGTTVTVSSAS
chain: APTSSSTKKTQLQLEHLLLDLQMILNGINNYKNPKLTDMLTFEFYMPKKATELKHLQCLERELKPLEEVLNLAQSKNFHLRPRDLISNINVIVLELKGSETTFMCEYADETATIVEFLNRWITFCQSIISTLT
In the case of B10, in test [4], the “Percent IL-2 signal transduction (HEK-IL-2 reporter assay)” value turned out to be 11% and the “Percent T-cell proliferation (PBMC proliferation assay)” value was determined as 39%.
